# Patent US20170305981A1 (UNIVERSITY OF CHICAGO, published 2017)
# T1: hepatic lipase (HL) on hepatocyte (HepG2) cells (UniProt P11150 23-499, limits assumed)
# T1 sequence (looked up): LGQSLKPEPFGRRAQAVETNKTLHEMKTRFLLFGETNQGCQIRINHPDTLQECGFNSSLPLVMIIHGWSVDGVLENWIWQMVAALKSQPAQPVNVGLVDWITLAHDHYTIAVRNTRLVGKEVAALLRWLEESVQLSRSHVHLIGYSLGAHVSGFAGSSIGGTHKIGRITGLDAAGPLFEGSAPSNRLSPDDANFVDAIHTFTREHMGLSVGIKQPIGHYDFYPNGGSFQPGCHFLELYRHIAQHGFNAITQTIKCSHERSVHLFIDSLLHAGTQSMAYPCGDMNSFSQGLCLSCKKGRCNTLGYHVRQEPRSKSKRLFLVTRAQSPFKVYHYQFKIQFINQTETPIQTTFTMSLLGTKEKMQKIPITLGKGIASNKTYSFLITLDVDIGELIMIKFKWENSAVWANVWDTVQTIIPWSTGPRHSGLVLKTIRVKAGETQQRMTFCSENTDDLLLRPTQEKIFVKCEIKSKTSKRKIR
# Tests used:
# [1] = molecular target: lipoprotein lipase (LpL), SIGMA; assay: cell-based or functional assay
# [2] = molecular target: T1, hepatic lipase (HL) on hepatocyte …; assay: cell-based or functional assay
# Chain of lipoprotein lipase (LpL), SIGMA (P11151 29-478): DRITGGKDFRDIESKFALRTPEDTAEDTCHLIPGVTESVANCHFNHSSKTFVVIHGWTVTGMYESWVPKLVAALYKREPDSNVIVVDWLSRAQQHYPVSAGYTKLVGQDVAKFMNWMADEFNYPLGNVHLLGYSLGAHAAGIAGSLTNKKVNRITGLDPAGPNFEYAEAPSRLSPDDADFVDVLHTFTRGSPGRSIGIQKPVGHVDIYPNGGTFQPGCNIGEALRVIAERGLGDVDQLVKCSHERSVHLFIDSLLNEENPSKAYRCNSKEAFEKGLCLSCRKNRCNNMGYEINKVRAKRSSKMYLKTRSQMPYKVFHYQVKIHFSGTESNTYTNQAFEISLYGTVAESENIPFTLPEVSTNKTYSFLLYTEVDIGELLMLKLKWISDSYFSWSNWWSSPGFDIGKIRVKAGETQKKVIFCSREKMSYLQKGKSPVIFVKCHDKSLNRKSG
binder,measurement,setting,value
ARLSRCVQVLSRKLTLKAKALKARIQQNLDQLRE [AV-H/K],"LpL activity in the absence of VLDL, 10 µM peptide",[1],~1.6 fold
same,"LpL activity in the presence of VLDL, 10 µM peptide",[1],~8 fold
same,"LpL activity in the presence of VLDL, relative to AV199-232",[1],44%
ARLSRCVQVFSRKLTLKAKALKARIQQNFDQLRE [AV-H/K-2F],"lipase stimulating activity, peptide (80 µg/ml) preincubated with VLDL (20 µg/ml)",[1],~2 fold
ARLSRCVQVLSRKLTLKAKALHARIQQNLDQLREELSRA [AV199-237],hepatic lipase activity in cell culture,[2],~3 fold
same,"hepatic lipase activity in live hepatocytes, 10 µM peptide",[2],~2.8 fold
